The target of assay [1] is CBKP1 complex (PaCgi121/PaBud32/PaKae1/PaPcc1) (Pyrococcus abyssi) (UniProt Q9UXT7). Description: SEC-SAXS.
Assay [2] has as its target CBKP2 complex (PaCgi121/PaBud32/PaKae1/PaPcc2) (Pyrococcus abyssi | Pyrococcus abyssi GE5) (UniProt Q9UXT7). Description: SEC-SAXS.
For assay [3], the target named is PaPcc2 with C-terminal hexa-histidine tag (Pyrococcus abyssi GE5). Description: SEC.

Take “CBKP1 complex (PaCgi121/PaBud32/PaKae1/PaPcc1) (from UniProt Q9UXT7 1-324)”: the stoichiometry N in assay [1] was 2.

The substance “CBKP2 complex (PaCgi121/PaBud32/PaKae1/PaPcc2) (from UniProt Q9UXT7 1-324)” yielded a stoichiometry N in assay [2] of 2.

Regarding “PaPcc2 with C-terminal hexa-histidine tag (natural protein)”, the stoichiometry N in assay [3] turned out to be 2.

Values taken from paper doi:10.1101/2022.08.30.505904.
